Measured values from publication PMC8169993.

Experiments:
[1] = biological target: T1, RPA (heterotrimer RPA1/RPA2/RPA3) (Homo sapiens, UniProt P27694;P15927;P35244 1-616;1-270;1-121); experiment: fluorescence polarization
[2] = biological target: T1, RPA (heterotrimer RPA1/RPA2/RPA3); experiment: smFRET
[3] = biological target: T1, RPA (heterotrimer RPA1/RPA2/RPA3); experiment: smFRET; remark: listed apart in the source
[4] = biological target: T1, RPA (heterotrimer RPA1/RPA2/RPA3); experiment: gel filtration
[5] = biological target: T1, RPA (heterotrimer RPA1/RPA2/RPA3); experiment: smFRET; remark: listed apart in the source

T1 sequence (P27694 whole entry, chain 1 of 3): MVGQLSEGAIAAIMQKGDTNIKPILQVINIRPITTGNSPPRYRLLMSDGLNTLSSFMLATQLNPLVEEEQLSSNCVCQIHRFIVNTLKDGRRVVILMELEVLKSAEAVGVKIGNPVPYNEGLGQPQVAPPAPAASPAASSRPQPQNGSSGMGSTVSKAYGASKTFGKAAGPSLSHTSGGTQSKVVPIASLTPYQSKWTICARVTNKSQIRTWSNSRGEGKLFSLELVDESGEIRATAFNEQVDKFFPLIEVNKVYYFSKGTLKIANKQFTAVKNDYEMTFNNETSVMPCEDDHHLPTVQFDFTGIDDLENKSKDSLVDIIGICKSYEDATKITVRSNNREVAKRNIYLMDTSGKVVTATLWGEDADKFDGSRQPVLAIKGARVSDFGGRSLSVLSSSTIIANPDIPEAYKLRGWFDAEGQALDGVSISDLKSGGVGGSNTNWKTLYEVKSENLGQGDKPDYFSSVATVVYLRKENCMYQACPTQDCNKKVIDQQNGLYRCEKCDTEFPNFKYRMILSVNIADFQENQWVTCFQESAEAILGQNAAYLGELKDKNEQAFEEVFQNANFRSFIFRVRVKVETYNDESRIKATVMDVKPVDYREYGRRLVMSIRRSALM
T1 sequence (P15927 whole entry, chain 2 of 3): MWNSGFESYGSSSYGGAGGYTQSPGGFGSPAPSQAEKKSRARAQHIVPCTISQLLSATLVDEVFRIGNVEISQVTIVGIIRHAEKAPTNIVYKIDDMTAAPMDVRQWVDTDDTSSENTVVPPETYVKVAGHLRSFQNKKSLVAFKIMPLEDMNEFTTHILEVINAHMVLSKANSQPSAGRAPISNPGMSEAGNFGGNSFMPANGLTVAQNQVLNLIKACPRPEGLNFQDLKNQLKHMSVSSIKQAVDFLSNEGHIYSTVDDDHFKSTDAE
T1 sequence (P35244 whole entry, chain 3 of 3): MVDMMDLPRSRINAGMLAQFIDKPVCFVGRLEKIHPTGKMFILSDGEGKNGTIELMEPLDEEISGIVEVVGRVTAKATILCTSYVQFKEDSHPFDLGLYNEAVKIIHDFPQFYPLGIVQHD

B1: 3G4L1 (FP substrate) (mixed)
DNA 1: GCGTGGCACCGGTAATAGGAAATAGGAGATTGGGTGGGTGGGTGGGTT
DNA 2: TCCTATTTCCTATTACCGGTGCCACGC
Kd [1]: 8.6 nM

B2: 3G4L4 (mixed)
DNA 1: GCGTGGCACCGGTAATAGGAAATAGGAGATTGGGTTTTGGGTTTTGGGTTTTGGGTT
DNA 2: TCCTATTTCCTATTACCGGTGCCACGC
binding result [2]: binds

B3: 27bp4nt (mixed)
DNA 1: GCGTGGCACCGGTAATAGGAAATAGGAGATT
DNA 2: TCCTATTTCCTATTACCGGTGCCACGC
binding result [3]: binds

B4: 3G4L5 (mixed)
DNA 1: GCGTGGCACCGGTAATAGGAAATAGGAGATTGGGTTTTTGGGTTTTTGGGTTTTTGGGTT
DNA 2: TCCTATTTCCTATTACCGGTGCCACGC
binding result [2]: binds

B5: 3G4L3 (FP substrate) (mixed)
DNA 1: GCGTGGCACCGGTAATAGGAAATAGGAGATTGGGTTAGGGTTAGGGTTAGGGTT
DNA 2: TCCTATTTCCTATTACCGGTGCCACGC
Kd [1]: 6.3 nM

B6: 4G4 (mixed)
DNA 1: GCGTGGCACCGGTAATAGGAAATAGGAGATTGGGGTGTGGGGACAGGGGTGTGGGGTT
DNA 2: TCCTATTTCCTATTACCGGTGCCACGC
binding result [4]: binds

B7: 3G4L121* (mixed)
DNA 1: GGGTGGGTAGGGTGGGATGTATGACAAGGAAGG
DNA 2: CCTTCCTTGTCATAC
binding result [5]: binds
